B1: ARL6IP1 (parent)
chain: YLDPSVLSGVSCFVMFLCLADYLV

Variants of: B1
Assay: protein stability index of a GFP-peptide fusion (GPS, HEK-293T) (PSI 1-6); higher = more stable
Settings: c terminus: a fixed tail appended
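Further: lentivirally expressed fusions sorted by FACS into six bins by GFP to DsRed ratio, PSI derived from sequencing read proportions per bin multiplied by bin number.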

First: YLDPSVLSGVSCFVMVLCLADYLV
Second: YLDPSVLSGVSCFVMWLCLADYLV
The protein stability index of the first is higher: 3.72 for the first, 2.85 for the second.

Compared with YLDPSVLSGVSCFVMFACLADYLV, YLDPSVLSGVSCFVMFDCLADYLV is higher in protein stability index: 2.34 for the first, 2.49 for the second.

First: YLDPSVLSGVSCFVMFFCLADYLV
Second: YLDPSVLSGVSCFVMFGCLADYLV
The protein stability index of the first is lower: 2.82 for the first, 4.55 for the second.

Going from YLDPSVLSGVSCFVMFHCLADYLV to YLDPSVLSGVSCFVMFKCLADYLV, the protein stability index rises from 2.4 to 3.75.

Going from YLDPSVLSGVSCFVMFMCLADYLV to YLDPSVLSGVSCFVMFRCLADYLV, the protein stability index falls from 4.66 to 2.54.

Going from YLDPSVLSGVSCFVMFSCLADYLV to YLDPSVLSGVSCFVMFTCLADYLV, the protein stability index rises from 1.35 to 3.26.

Going from YLDPSVLSGVSCFVMFVCLADYLV to YLDPSVLSGVSCFVMFWCLADYLV, the protein stability index rises from 2.2 to 3.18.

First: YLDPSVLSGVSCFVMFLALADYLV
Second: YLDPSVLSGVSCFVMFLFLADYLV
The protein stability index of the first is lower: 1.91 for the first, 3.35 for the second.

First: YLDPSVLSGVSCFVMFLGLADYLV
Second: YLDPSVLSGVSCFVMFLHLADYLV
The protein stability index of the first is lower: 2.47 for the first, 2.85 for the second.

Compared with YLDPSVLSGVSCFVMFLKLADYLV, YLDPSVLSGVSCFVMFLLLADYLV is higher in protein stability index: 2.37 for the first, 3.54 for the second.

First: YLDPSVLSGVSCFVMFLNLADYLV
Second: YLDPSVLSGVSCFVMFLQLADYLV
The protein stability index of the first is higher: 2.68 for the first, 2.01 for the second.

Compared with YLDPSVLSGVSCFVMFLRLADYLV, YLDPSVLSGVSCFVMFLTLADYLV is higher in protein stability index: 2.65 for the first, 3.26 for the second.

Compared with YLDPSVLSGVSCFVMFLVLADYLV, YLDPSVLSGVSCFVMFLYLADYLV is lower in protein stability index: 2.09 for the first, 1.96 for the second.

Going from YLDPSVLSGVSCFVMFLCAADYLV to YLDPSVLSGVSCFVMFLCCADYLV, the protein stability index rises from 2.42 to 4.14.

First: YLDPSVLSGVSCFVMFLCDADYLV
Second: YLDPSVLSGVSCFVMFLCEADYLV
The protein stability index of the first is lower: 2.98 for the first, 3.85 for the second.

First: YLDPSVLSGVSCFVMFLCFADYLV
Second: YLDPSVLSGVSCFVMFLCHADYLV
The protein stability index of the first is lower: 2.56 for the first, 3.03 for the second.

First: YLDPSVLSGVSCFVMFLCKADYLV
Second: YLDPSVLSGVSCFVMFLCMADYLV
The protein stability index of the first is higher: 2.81 for the first, 2.06 for the second.

Compared with YLDPSVLSGVSCFVMFLCNADYLV, YLDPSVLSGVSCFVMFLCPADYLV is lower in protein stability index: 2.57 for the first, 2.1 for the second.

Going from YLDPSVLSGVSCFVMFLCQADYLV to YLDPSVLSGVSCFVMFLCRADYLV, the protein stability index rises from 2.06 to 2.38.

First: YLDPSVLSGVSCFVMFLCSADYLV
Second: YLDPSVLSGVSCFVMFLCTADYLV
The protein stability index of the first is higher: 3.89 for the first, 2.74 for the second.

Compared with YLDPSVLSGVSCFVMFLCWADYLV, YLDPSVLSGVSCFVMFLCYADYLV is higher in protein stability index: 1.73 for the first, 1.85 for the second.

First: YLDPSVLSGVSCFVMFLCLCDYLV
Second: YLDPSVLSGVSCFVMFLCLFDYLV
The protein stability index of the first is higher: 3.26 for the first, 2.87 for the second.

First: YLDPSVLSGVSCFVMFLCLHDYLV
Second: YLDPSVLSGVSCFVMFLCLIDYLV
The protein stability index of the first is higher: 2.64 for the first, 1.85 for the second.

Compared with YLDPSVLSGVSCFVMFLCLKDYLV, YLDPSVLSGVSCFVMFLCLNDYLV is lower in protein stability index: 3.71 for the first, 3.34 for the second.

Compared with YLDPSVLSGVSCFVMFLCLTDYLV, YLDPSVLSGVSCFVMFLCLVDYLV is lower in protein stability index: 4.15 for the first, 1.63 for the second.

Going from YLDPSVLSGVSCFVMFLCLWDYLV to YLDPSVLSGVSCFVMFLCLYDYLV, the protein stability index rises from 2.47 to 3.24.

Going from YLDPSVLSGVSCFVMFLCLAAYLV to YLDPSVLSGVSCFVMFLCLAFYLV, the protein stability index rises from 2.71 to 3.29.

Going from YLDPSVLSGVSCFVMFLCLAGYLV to YLDPSVLSGVSCFVMFLCLAHYLV, the protein stability index falls from 3.14 to 2.6.

Compared with YLDPSVLSGVSCFVMFLCLAIYLV, YLDPSVLSGVSCFVMFLCLAKYLV is lower in protein stability index: 3.5 for the first, 1.14 for the second.

Going from YLDPSVLSGVSCFVMFLCLANYLV to YLDPSVLSGVSCFVMFLCLAQYLV, the protein stability index falls from 2.7 to 2.58.

Compared with YLDPSVLSGVSCFVMFLCLATYLV, YLDPSVLSGVSCFVMFLCLAVYLV is higher in protein stability index: 3.76 for the first, 3.96 for the second.

Compared with YLDPSVLSGVSCFVMFLCLAYYLV, YLDPSVLSGVSCFVMFLCLADCLV is higher in protein stability index: 1.55 for the first, 3.08 for the second.

First: YLDPSVLSGVSCFVMFLCLADHLV
Second: YLDPSVLSGVSCFVMFLCLADILV
The protein stability index of the first is lower: 2.31 for the first, 2.44 for the second.

Compared with YLDPSVLSGVSCFVMFLCLADKLV, YLDPSVLSGVSCFVMFLCLADLLV is lower in protein stability index: 3.93 for the first, 1.58 for the second.

First: YLDPSVLSGVSCFVMFLCLADNLV
Second: YLDPSVLSGVSCFVMFLCLADPLV
The protein stability index of the first is higher: 3.07 for the first, 2.87 for the second.

Going from YLDPSVLSGVSCFVMFLCLADQLV to YLDPSVLSGVSCFVMFLCLADSLV, the protein stability index rises from 3.52 to 3.94.

First: YLDPSVLSGVSCFVMFLCLADVLV
Second: YLDPSVLSGVSCFVMFLCLADWLV
The protein stability index of the first is lower: 2.14 for the first, 3.48 for the second.

Going from YLDPSVLSGVSCFVMFLCLADYCV to YLDPSVLSGVSCFVMFLCLADYEV, the protein stability index rises from 3.76 to 4.8.

First: YLDPSVLSGVSCFVMFLCLADYGV
Second: YLDPSVLSGVSCFVMFLCLADYHV
The protein stability index of the first is lower: 2.59 for the first, 2.74 for the second.

First: YLDPSVLSGVSCFVMFLCLADYIV
Second: YLDPSVLSGVSCFVMFLCLADYKV
The protein stability index of the first is higher: 4.16 for the first, 3.29 for the second.

Compared with YLDPSVLSGVSCFVMFLCLADYMV, YLDPSVLSGVSCFVMFLCLADYNV is higher in protein stability index: 2.83 for the first, 3.21 for the second.

First: YLDPSVLSGVSCFVMFLCLADYPV
Second: YLDPSVLSGVSCFVMFLCLADYQV
The protein stability index of the first is lower: 2.39 for the first, 2.69 for the second.

Compared with YLDPSVLSGVSCFVMFLCLADYTV, YLDPSVLSGVSCFVMFLCLADYVV is lower in protein stability index: 3.08 for the first, 3.07 for the second.

Compared with YLDPSVLSGVSCFVMFLCLADYWV, YLDPSVLSGVSCFVMFLCLADYYV is higher in protein stability index: 2.07 for the first, 2.27 for the second.

First: YLDPSVLSGVSCFVMFLCLADYLA
Second: YLDPSVLSGVSCFVMFLCLADYLC
The protein stability index of the first is lower: 2.78 for the first, 3.6 for the second.

Going from YLDPSVLSGVSCFVMFLCLADYLF to YLDPSVLSGVSCFVMFLCLADYLI, the protein stability index rises from 2.97 to 3.52.

Compared with YLDPSVLSGVSCFVMFLCLADYLL, YLDPSVLSGVSCFVMFLCLADYLM is lower in protein stability index: 3.97 for the first, 3.77 for the second.

Reference: the supplement of paper PMC10567573
